According to patent publication US20160130575, “SCREENING OF NUCLEIC ACID AGENTS VIA PARTICLE DISPLAY” (THE REGENTS OF THE UNIVERSITY OF CALIFORNIA, published 2016):

Assays:
[1] = molecular target: Apolipoprotein E3 (ApoE3) (Homo sapiens, UniProt P02649 P02649:19-317); assay: flow; FP-only particle negative control, 3 nM ApoE; details: tags: His6; biotinylated (NHS-PEO4); R&D Systems
[2] = molecular target: Plasminogen activator inhibitor-1 (PAI-1) (Homo sapiens, UniProt P05121 P05121:24-402); assay: flow; FP-only particle negative control, 1 nM PAI-1; details: tags: His6; biotinylated (NHS-PEO4); Millipore
[3] = molecular target: 4-1BB/TNFRSF9/CD137 Fc chimera (Homo sapiens, UniProt Q07011 Q07011:24-186); assay: flow; FP-only particle negative control, 4 nM 4-1BB; details: tags: Fc fusion; His6; biotinylated (NHS-PEO4); R&D Systems; chain copies: 2
alpha-thrombin = alpha-thrombin (Homo sapiens, UniProt P00734;P00734 P00734:328-363,P00734:364-622); assay: flow; FP-only particle negative control, 20 pM thrombin

Measured: binding result

Chain of Plasminogen activator inhibitor-1 (PAI-1) (P05121 24-402, one chain of several): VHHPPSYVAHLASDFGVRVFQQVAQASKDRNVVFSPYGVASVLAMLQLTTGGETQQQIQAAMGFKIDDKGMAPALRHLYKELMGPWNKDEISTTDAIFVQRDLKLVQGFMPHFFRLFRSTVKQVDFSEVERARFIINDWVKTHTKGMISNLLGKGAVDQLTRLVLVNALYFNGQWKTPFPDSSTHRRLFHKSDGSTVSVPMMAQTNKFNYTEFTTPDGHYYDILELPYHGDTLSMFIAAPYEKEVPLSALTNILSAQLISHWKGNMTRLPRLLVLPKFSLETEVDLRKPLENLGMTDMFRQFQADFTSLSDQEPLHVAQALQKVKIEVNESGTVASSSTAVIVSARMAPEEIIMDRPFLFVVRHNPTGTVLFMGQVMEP
Chain of 4-1BB/TNFRSF9/CD137 Fc chimera (Q07011 24-186, change not shown, one chain of several): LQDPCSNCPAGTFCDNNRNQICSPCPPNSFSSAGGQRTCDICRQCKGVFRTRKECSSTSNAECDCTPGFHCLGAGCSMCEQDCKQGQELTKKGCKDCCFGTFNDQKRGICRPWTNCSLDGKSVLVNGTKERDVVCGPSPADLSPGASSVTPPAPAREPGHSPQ
Chain of Apolipoprotein E3 (ApoE3) (P02649 19-317, one chain of several): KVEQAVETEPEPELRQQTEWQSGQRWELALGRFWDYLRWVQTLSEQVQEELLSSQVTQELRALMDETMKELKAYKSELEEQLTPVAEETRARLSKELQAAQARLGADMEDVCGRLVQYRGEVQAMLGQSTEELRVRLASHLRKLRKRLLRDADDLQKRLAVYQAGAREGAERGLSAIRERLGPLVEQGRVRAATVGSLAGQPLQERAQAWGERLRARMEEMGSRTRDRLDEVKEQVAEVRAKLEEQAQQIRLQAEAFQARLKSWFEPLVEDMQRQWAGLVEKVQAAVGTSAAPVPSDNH

AGCAGCACAGAGGTCAGATG (ssDNA, 5'-amino-PEG18, coupled to magnetic particle) [Forward primer (FP) control]
no binding: all assays above
